Data taken from publication PMC7665024, “Anti-apoptotic BCL-2 regulation by changes in dynamics of its long unstructured loop” (Communications Biology, 2020).
Entries after “also recorded” stand apart in the source; their conditions may differ.

Key:
[1] = test system: BAX; test: FRAP-GUV pore-forming activity of BAX, 70-kDa F-dextran;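 for FRAP pore-forming activity, average: unitless ratio D/D0 relative to diffusion coefficient after Triton X-100 disruption of GUVs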;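 for FRAP pore-forming activity: unitless ratio D/D0 relative to diffusion coefficient after Triton X-100 disruption of GUVs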; format: biochemical, mouse; design: FRAP pore-forming activity / FRAP pore-forming activity, average / p (FRAP-70k-p), Average: unit not given here; conditions: for pore-forming activity / effect on BAX-induced membrane pores on GUV (in words): 10- and 70-kDa F-dextran, BAX 1 µM, BimBH3 2 µM, BCL-2 1 µM, ABT-199 30 µM, room temperature, Fig. 2c; for FRAP pore-forming activity, average / FRAP pore-forming activity: 70 kDa F-dextran; for FRAP pore-forming activity, average: mean of trials
Method: (§1) Briefly, GUVs were incubated with the proteins of interest over a period of time (Fig. 2c), followed by photobleaching within individual GUVs. A series of fluorescent images were collected over time after the photobleaching and then analyzed to yield the diffusion coefficients of Fluor molecules (including FITC-labeled 70-kDa, and Alexa-647-labeled 10-kDa probes) using the theoretical approach detailed in the “Methods” section. As Fluor molecules are homogeneously dispersed in the solution (outside and inside of GUVs) before the incubation with BAX and activators, it is reasonable to expect that the larger the induced pore area on the surface of a GUV, the greater the diffusion coefficient. Thus, the diffusion coefficient is directly related to the pore-forming activity of activated BAX. As the pore-forming activity is proportional to the concentration of BAX[18], we fixed the total amount of added BAX in all of the measurements below (see the “Methods” section).
(§2) Full-length BAX and variants were prepared as previously described[18],[22],[35]. Mouse BAX was cloned into pTYB1 vector (New England Biolabs, Inc.), resulting pTYB1-BAX construct. The pTYB1-BAX construct encoding a fusion protein of BAX with chitin-binding peptide was separated by a self-cleavable intein tag to obtain a full-length BAX. Wild-type BAX has two native cysteine residues at 62 and 126. Cysteine-free construct (C62S/C126S) was used to prepare single-cysteine BAX variants for conjugating fluorescence probes (e.g., BAX136C in Fig. 1d). Point mutations of recombinant BAX were generated using a QuikChange mutagenesis kit. Proteins were expressed in E. coli (ER2566) strain (New England Biolabs, Inc.) and purified without detergent. Bacterial cultures were grown at 37 °C in LB medium containing 0.1 g/L ampicillin to reach an OD600 of 1.0. BAX expression was induced by addition of 0.3 mM IPTG at 30 °C for 6−8 h. The cells were harvested by centrifugation and resuspended in ice-cold lysis buffer (20 mM Tris–HCl, pH 7.0, 500 mM NaCl and 1 mM PMSF). The resuspended pellet was sonicated on ice for 30 min, followed by centrifugation at 12,800 × g for 50 min. […] The resins were incubated in a pre-equilibrated buffer (20 mM sodium phosphate, pH 8.0, 100 mM NaCl, 60 mM dithiothreitol (DTT)) for 48 h. Proteins were eluted from column and further purified by a SEC using a HiLoad 16/60 Superdex 75 column (GE Healthcare) pre-equilibrated in PB buffer (20 mM sodium phosphate, pH 7.4, 100 mM NaCl). Purified proteins were confirmed by SDS–PAGE with Coomassie blue staining. Protein concentration was determined using absorption spectroscopy at 280 nm.
(§3) All lipids used were purchased from Avanti Polar Lipids. […] Texas Red 1,2-dihexadecanoyl-sn-glycero-3-phosphoethanolamine (TR-DPPE) (Invitrogen) of 0.05% was added to the lipid mixture for virtualization of GUV[18],[26],[27]. GUVs were prepared with the gel-assisted swelling on a polyvinyl alcohol (PVA) gel[39]. A 5% (w/w) solution of PVA (MW 145,000) was prepared by stirring PVA in ddH2O while heating at 90 °C. PVA solution was spread on a microscope coverslip (18 × 18 mm, Matsunami, Japan) and then dried at 50 °C. Lipid mixture (1 mg/mL) dissolved in chloroform were spread on the dry PVA film and placed under vacuum for 30 min to evaporate the solvent. Lipids were rehydrated for 1 h in PB buffer. The resulting GUVs were transferred to an Eppendorf tube using blunt tips.
(§4) FRAP measurements were performed as described previously. […] All reactions were at room temperature and the final volume was 200 μL.

[2] = test system: BAX; test: FRAP-GUV pore-forming activity of BAX, 10-kDa F-dextran; format: biochemical, mouse; design: unit not given here
Method: as §1, §2, §3, §4

[3] = 10 kDa F-dextran, mean of trials

For “BAX: full-length mouse BAX; in FRET the single-cysteine variant BAX136C labeled with AL488 [reference compound]”, the “pore-forming activity / effect on BAX-induced membrane pores on GUV (in words)” value [1] was “neither BAX nor EEE, in the absence of pro-apoptotic BimBH3, is able to induce large membrane pores on GUV”, the “FRAP pore-forming activity, average” value [1] was 0.004165 and the FRAP pore-forming activity ([1]; trial1) was 0.0008251. The FRAP pore-forming activity ([1]; trial2) was 0.006931, the FRAP pore-forming activity ([1]; trial3) was 0.002475 and the FRAP pore-forming activity ([1]; trial4) was 0.000495. For the same molecule, the FRAP pore-forming activity ([1]; trial5) was 0.00132, the FRAP pore-forming activity ([1]; trial6) was 0.001155 and the FRAP pore-forming activity ([1]; trial7) was 0.003135. For the same molecule, the FRAP pore-forming activity ([1]; trial8) was 0.001155, the FRAP pore-forming activity ([1]; trial9) was 0.000495 and the FRAP pore-forming activity ([1]; trial10) was 0.0008251. It also gave an FRAP pore-forming activity ([1]; trial11) of 0.00264, an FRAP pore-forming activity ([1]; trial12) of 0.00231 and an FRAP pore-forming activity ([1]; trial13) of 0.002145. It also gave an FRAP pore-forming activity ([1]; trial14) of 0.005776, an FRAP pore-forming activity ([1]; trial15) of 0.000165 and an FRAP pore-forming activity ([1]; trial16) of 0.000495. The FRAP pore-forming activity ([1]; trial17) was 0.01485, the FRAP pore-forming activity ([1]; trial18) was 0.0132 and the FRAP pore-forming activity ([1]; trial19) was 0.01155. For the same molecule, the FRAP pore-forming activity ([1]; trial20) was 0.002805, the FRAP pore-forming activity ([1]; trial21) was 0.01271 and the “p (FRAP-70k-p), Average” value ([1]; 70 kDa, Average of replicates (Count: BAX 21; BAX + BimBH3 16; BAX + BimBH3 + EEE 19; + EEE-PB 8; + EEE+ABT-199 5)) was 0.004165. The “FRAP pore-forming activity, average” value [2, 3] was 0.009408, the FRAP pore-forming activity ([2]; 10 kDa F-dextran, trial1) was 0.008947 and the FRAP pore-forming activity ([2]; 10 kDa F-dextran, trial2) was 0.02404. For the same molecule, the FRAP pore-forming activity ([2]; 10 kDa F-dextran, trial3) was 0.006842, the FRAP pore-forming activity ([2]; 10 kDa F-dextran, trial4) was 0.00807 and the FRAP pore-forming activity ([2]; 10 kDa F-dextran, trial5) was 0.01263. The FRAP pore-forming activity ([2]; 10 kDa F-dextran, trial6) was 0.01719, the FRAP pore-forming activity ([2]; 10 kDa F-dextran, trial7) was 0.004737 and the FRAP pore-forming activity ([2]; 10 kDa F-dextran, trial8) was 0.002982. It also gave an FRAP pore-forming activity ([2]; 10 kDa F-dextran, trial9) of 0.002807, an FRAP pore-forming activity ([2]; 10 kDa F-dextran, trial10) of 0.02035 and an FRAP pore-forming activity ([2]; 10 kDa F-dextran, trial11) of 0.007719. For the same molecule, the FRAP pore-forming activity ([2]; 10 kDa F-dextran, trial12) was 0.003684, the FRAP pore-forming activity ([2]; 10 kDa F-dextran, trial13) was 0.01684 and the FRAP pore-forming activity ([2]; 10 kDa F-dextran, trial14) was 0.0007018. The FRAP pore-forming activity ([2]; 10 kDa F-dextran, trial15) was 0.003509, the FRAP pore-forming activity ([2]; 10 kDa F-dextran, trial16) was 0.009474 and the “FRAP pore-forming activity, average” value ([2]; 10 kDa, Average of replicates (Count: BAX 16; BAX + BimBH3 19; BAX + BimBH3 + EEE 22; + EEE-PB 4; + EEE+ABT-199 5)) was 0.009408.

B1: EEE (protein)
chain: MAHAGRTGYDNREIVMKYIHYKLSQRGYEWDAGDVGAAPPGAAPAPGIFSSQPGHTPHPAASRDPVAREEPLQTPAAPGAAAGPALEPVPPVVHLTLRQAGDDFSRRYRRDFAEMSSQLHLTPFTARGRFATVVEELFRDGVNWGRIVAFFEFGGVMCVESVNREMSPLVDNIALWMTEYLNRHLHTWIQDNGGWDAFVELYGPSMRPLFDFSWLSL
modifications: Pacific Blue (maleimide) on the native cysteine 158; left off: His6, C-terminal, state not stated
In the case of B1, the “pore-forming activity / effect on BAX-induced membrane pores on GUV (in words)” value [1] is reported as “neither BAX nor EEE, in the absence of pro-apoptotic BimBH3, is able to induce large membrane pores on GUV; also recorded: the pore-forming ability of BAX is clearly inhibited by the presence of EEE”, the “FRAP pore-forming activity, average” value [1] is reported as 0.0009376 and the FRAP pore-forming activity ([1]; trial1) is reported as 0.000495. It also gave an FRAP pore-forming activity ([1]; trial2) of 0.0006601, an FRAP pore-forming activity ([1]; trial3) of 0.000495 and an FRAP pore-forming activity ([1]; trial4) of 0.0009901. The FRAP pore-forming activity ([1]; trial5) was 0.0008251, the FRAP pore-forming activity ([1]; trial6) was 0.000495 and the FRAP pore-forming activity ([1]; trial7) was 0.0008251. The FRAP pore-forming activity ([1]; trial8) was 0.000495, the FRAP pore-forming activity ([1]; trial9) was 0.00132 and the FRAP pore-forming activity ([1]; trial10) was 0.0008251. It also gave an FRAP pore-forming activity ([1]; trial11) of 0.0008251, an FRAP pore-forming activity ([1]; trial12) of 0.0008251 and an FRAP pore-forming activity ([1]; trial13) of 0.001155. The FRAP pore-forming activity ([1]; trial14) was 0.0009901, the FRAP pore-forming activity ([1]; trial15) was 0.002475 and the FRAP pore-forming activity ([1]; trial16) was 0.000495. The FRAP pore-forming activity ([1]; trial17) was 0.0006601, the FRAP pore-forming activity ([1]; trial18) was 0.000495 and the FRAP pore-forming activity ([1]; trial19) was 0.002475. It also gave an FRAP pore-forming activity ([1]; trial20) of 0.0008251, an FRAP pore-forming activity ([1]; trial21) of 0.0006601 and an FRAP pore-forming activity ([1]; trial22) of 0.00132. The “FRAP pore-forming activity, average” value [2, 3] was 0.001715, the FRAP pore-forming activity ([2]; 10 kDa F-dextran, trial1) was 0.003333 and the FRAP pore-forming activity ([2]; 10 kDa F-dextran, trial2) was 0.0005263. It also gave an FRAP pore-forming activity ([2]; 10 kDa F-dextran, trial3) of 0.001579, an FRAP pore-forming activity ([2]; 10 kDa F-dextran, trial4) of 0.002807 and an FRAP pore-forming activity ([2]; 10 kDa F-dextran, trial5) of 0.002982. It also gave an FRAP pore-forming activity ([2]; 10 kDa F-dextran, trial6) of 0.001754, an FRAP pore-forming activity ([2]; 10 kDa F-dextran, trial7) of 0.0005263 and an FRAP pore-forming activity ([2]; 10 kDa F-dextran, trial8) of 0.002807. For the same molecule, the FRAP pore-forming activity ([2]; 10 kDa F-dextran, trial9) was 0.0005263, the FRAP pore-forming activity ([2]; 10 kDa F-dextran, trial10) was 0.0005263 and the FRAP pore-forming activity ([2]; 10 kDa F-dextran, trial11) was 0.0005263. It also gave an FRAP pore-forming activity ([2]; 10 kDa F-dextran, trial12) of 0.001053, an FRAP pore-forming activity ([2]; 10 kDa F-dextran, trial13) of 0.0005263 and an FRAP pore-forming activity ([2]; 10 kDa F-dextran, trial14) of 0.002632. It also gave an FRAP pore-forming activity ([2]; 10 kDa F-dextran, trial15) of 0.001053, an FRAP pore-forming activity ([2]; 10 kDa F-dextran, trial16) of 0.002632 and an FRAP pore-forming activity ([2]; 10 kDa F-dextran, trial17) of 0.001404. It also gave an FRAP pore-forming activity ([2]; 10 kDa F-dextran, trial18) of 0.003684.
